Data taken from patent publication US20230398224A1.
One block for each binder: values may come before it. Positions of bridges follow the written chain, without caps; N, C: chain ends. Non-standard residues stand in square brackets, D forms with d. Groups on a side chain read outwards from the residue. int‑CC7 = mannose-6-phosphonate M6PR ligand; Bip = N[C@@H](Cc1ccc(-c2ccccc2)cc1)C(=O)O; NMeA = CN[C@@H](C)C(=O)O

Biological target: Purified recombinant full length human PCSK9 with C-terminal biotinylated Avitag (human) (UniProt Q8NBP7)
Sequence (Q8NBP7 31-692): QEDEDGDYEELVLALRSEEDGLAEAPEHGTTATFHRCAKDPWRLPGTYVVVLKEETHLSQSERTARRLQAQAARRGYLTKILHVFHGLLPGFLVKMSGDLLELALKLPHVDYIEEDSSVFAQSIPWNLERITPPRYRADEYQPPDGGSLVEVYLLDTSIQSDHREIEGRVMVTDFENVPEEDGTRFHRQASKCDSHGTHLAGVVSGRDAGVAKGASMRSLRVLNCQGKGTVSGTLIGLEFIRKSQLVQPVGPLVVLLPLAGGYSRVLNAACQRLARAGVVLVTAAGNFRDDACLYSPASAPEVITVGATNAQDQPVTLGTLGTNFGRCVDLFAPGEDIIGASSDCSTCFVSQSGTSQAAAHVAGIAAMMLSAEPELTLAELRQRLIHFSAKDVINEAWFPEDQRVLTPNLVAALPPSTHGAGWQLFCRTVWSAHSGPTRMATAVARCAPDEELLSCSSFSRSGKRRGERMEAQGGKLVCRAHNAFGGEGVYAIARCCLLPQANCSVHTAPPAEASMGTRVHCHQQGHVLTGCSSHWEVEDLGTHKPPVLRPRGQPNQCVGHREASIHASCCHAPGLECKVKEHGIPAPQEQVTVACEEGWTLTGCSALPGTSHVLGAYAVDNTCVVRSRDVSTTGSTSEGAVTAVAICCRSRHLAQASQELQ
Experiment: SPR, ProteOn XPR36; biotinylated human PCSK9 on NeutrAvidin NLC chip

Kd: 4.9 nM
Binder: {CH2CO}-FVPTT[Bip][NMeA][Bip][NMeA]EAPCGK([Lys(4-oxopentanoyl)-int‑CC7])-NH2 (thioether N-13; not fully specified; also: further groups not given here) [Bifunctional compound (BFC-8)]

Kd: 7.7 nM
B1: Bifunctional compound (BFC-3) (peptide)
peptide: {CH2CO}-FVPTT[Bip][NMeA][Bip][NMeA]EAPCGK-NH2
modifications: thioether N-13; not fully specified (residue 15); also: further groups not given here

Kd: 7.4 nM
Binder: {CH2CO}-FVPTT[Bip][NMeA][Bip][NMeA]EAPCGK([Lys(4-oxopentanoyl)-int‑CC7])-NH2 (thioether N-13; not fully specified; also: further groups not given here) [Bifunctional compound (BFC-9)]
